We go through 14 molecules from patent US20260209362A1 (VIB VZW, published 2026).

Test [1] deals with T1, biotinylated recombinant human IL-12Rβ2 (human, UniProt Q99665 24-622, random biotinylated).
T1 construct: Recombinant protein produced in-house; also called hIL-12RB2; human IL-12RB2
T1 sequence: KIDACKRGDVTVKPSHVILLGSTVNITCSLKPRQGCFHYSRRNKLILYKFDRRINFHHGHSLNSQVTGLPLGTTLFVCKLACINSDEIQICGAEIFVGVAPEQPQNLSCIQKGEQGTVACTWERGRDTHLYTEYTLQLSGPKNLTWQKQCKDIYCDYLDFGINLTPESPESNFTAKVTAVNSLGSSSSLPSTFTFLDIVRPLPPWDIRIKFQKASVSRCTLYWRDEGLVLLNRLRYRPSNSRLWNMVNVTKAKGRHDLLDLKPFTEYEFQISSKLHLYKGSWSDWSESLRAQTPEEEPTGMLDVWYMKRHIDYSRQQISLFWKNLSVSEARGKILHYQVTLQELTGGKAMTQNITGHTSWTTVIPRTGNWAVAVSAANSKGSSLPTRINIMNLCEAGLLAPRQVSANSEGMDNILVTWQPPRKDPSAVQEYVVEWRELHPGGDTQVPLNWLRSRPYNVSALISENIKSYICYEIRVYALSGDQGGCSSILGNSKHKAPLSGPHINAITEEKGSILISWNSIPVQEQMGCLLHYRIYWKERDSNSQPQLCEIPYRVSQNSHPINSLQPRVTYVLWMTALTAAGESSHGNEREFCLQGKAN
The test is described as follows: BLI, P.E., off-rate ranking. (Biolayer interferometry detects binding as a change in optical thickness at a sensor tip.)

Test [2] concerns the target T2, biotinylated recombinant mouse IL-12Rβ2 (mouse, UniProt P97378 24-637, random biotinylated).
T2 construct: Recombinant protein produced in-house; also called mIL-12RB2; mouse IL-12RB2
T2 sequence: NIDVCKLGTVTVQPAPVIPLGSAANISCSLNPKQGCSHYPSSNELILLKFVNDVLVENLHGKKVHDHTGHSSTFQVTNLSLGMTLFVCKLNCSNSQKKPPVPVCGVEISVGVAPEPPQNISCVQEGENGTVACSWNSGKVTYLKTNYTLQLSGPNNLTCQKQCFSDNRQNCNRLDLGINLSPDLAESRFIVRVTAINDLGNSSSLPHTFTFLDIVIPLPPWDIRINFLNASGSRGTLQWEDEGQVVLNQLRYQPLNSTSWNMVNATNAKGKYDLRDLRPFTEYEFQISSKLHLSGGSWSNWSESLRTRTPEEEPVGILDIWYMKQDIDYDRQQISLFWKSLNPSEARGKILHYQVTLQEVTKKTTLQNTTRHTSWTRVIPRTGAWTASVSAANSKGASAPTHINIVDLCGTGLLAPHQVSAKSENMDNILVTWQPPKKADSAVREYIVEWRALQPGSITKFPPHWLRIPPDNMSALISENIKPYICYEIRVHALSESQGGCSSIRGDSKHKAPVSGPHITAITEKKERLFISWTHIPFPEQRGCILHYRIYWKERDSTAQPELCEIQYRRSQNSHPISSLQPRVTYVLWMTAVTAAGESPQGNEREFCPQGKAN
Kind of test: ELISA, P.E., biotinylated antigen. For orientation: In an ELISA, binding on a coated surface is turned into a signal by an enzyme label.

Test [3] concerns the target T1, biotinylated recombinant human IL-12Rβ2. The test is described as follows: ELISA, P.E., biotinylated antigen.

B1: anti-IL-12Rβ2 VHH clone 3CAH60 (clone ID 20361) (VHH, not shown: small tags and cut ends)
VHH: QVQLQESGGGLVQPGGSLILSCVASGFAMDYLTMGWSREAPRNEREDISCIDTSGRSTDYLDSVKGRFTISRDNAKNTLYLHMNDLKPEDTAEYYCLASTSYCGAGYEYRGQGTQVTVSS
notes: periplasmic extract
With B1, in test [1], the Response came to 0.59 and the dissociation rate constant (koff) – broadly, the rate constant with which the complex falls apart – is 0.00517 s⁻¹. The “ELISA mIL-12RB2/control” value in test [2] stood at 1.9. In test [3], the “ELISA hIL-12RB2/control” value was found to be 3.91.

B2: anti-IL-12Rβ2 VHH clone 3CAHS79 (clone ID 20398) (VHH, not shown: small tags and cut ends)
VHH: QVQLQESGGGLVQPGGSLRLTCVASGFPFSTHAMSWVRQPPGKGREWISAINSGGDSTDYADSVMGRFTISRDNAKNTVYLQMNSLKSEDTAVYYCAKYEDCSDYDCSSRASWGQGTQVTVSS
notes: periplasmic extract
With B2, in test [1], the Response was found to be 0.268 and the koff came out at 0.00434 s⁻¹. For the same molecule, in test [2], the “ELISA mIL-12RB2/control” value came out at 1.04. The “ELISA hIL-12RB2/control” value in test [3] was 3.71.

B3: anti-IL-12Rβ2 VHH clone 3CAHS171 (clone ID 20407) (VHH, not shown: small tags and cut ends)
VHH: QVQLQESGGGLVQPGGSLRLTCVASGFPFSTHAMSWVRQPPGKGREWISAINSGGDSTDYADSVMGRFTISRDNAKNTVYLQMNSLKSEDTAAYYCAKYEDCSDYDCSSRASWGQGTQVTVSS
notes: periplasmic extract
For B3, in test [1], the Response was 0.195 and the koff came out at 0.00431 s⁻¹. Besides, in test [2], the “ELISA mIL-12RB2/control” value is 0.961. Besides, in test [3], the “ELISA hIL-12RB2/control” value came to 3.27.

B4: anti-IL-12Rβ2 VHH clone 3CRH28 (clone ID 20380) (VHH, not shown: small tags and cut ends)
VHH: QVQLQESGGGLVQPGGSLTLSCAASGFTFSSNAMSWVRQAPGKGLEWVSSISSGGGTTYYTDSVKGRFTTARDNAKNTLYLRMNSLKPEDTAVYYCSKSSTGSGSRGQGTQVTVSS
notes: periplasmic extract
Regarding B4, in test [1], the Response is 0.4 and the koff is 0.00428 s⁻¹. Also, in test [2], the “ELISA mIL-12RB2/control” value amounted to 0.975. Besides, in test [3], the “ELISA hIL-12RB2/control” value came out at 3.64.

B5: anti-IL-12Rβ2 VHH clone 3CAH32 (clone ID 20357) (VHH, not shown: small tags and cut ends)
VHH: QVQLQESGGGLVQPGGSLRLSCAASGSILRINLMGWYRQVPGKQRELVAEMSTGGSTTYVDSVKGRFTISRDNAKNTVYLQMNSLKPEDTAVYYCNAKAWQLGRLENDDWGQGTQVTVSS
notes: periplasmic extract
Consider B5, for which, in test [1], the Response turned out to be 0.607 and the koff stood at 0.00419 s⁻¹. Besides, the “ELISA mIL-12RB2/control” value in test [2] is 0.842. Besides, in test [3], the “ELISA hIL-12RB2/control” value turned out to be 4.31.

B6: anti-IL-12Rβ2 VHH clone 3CAHS102 (clone ID 20399) (VHH, not shown: small tags and cut ends)
VHH: QVQLQESGGGLVQPGGSLRLSCAASGSILRINLMGWYRQVPGKQRELVAEMSTGGSTTYVDSVEGRFTISRDNAKNTVYLQMNSLKPEDTAVYYCNAKAWQLGRLENDDWGQGTQVTVSS
notes: periplasmic extract
As for B6, in test [1], the Response stood at 0.323 and the koff was determined as 0.00267 s⁻¹. For the same molecule, the “ELISA mIL-12RB2/control” value in test [2] was 1.02. For the same molecule, the “ELISA hIL-12RB2/control” value in test [3] was determined as 3.54.

B7: anti-IL-12Rβ2 VHH clone 3CRHS31 (clone ID 20418) (VHH, not shown: small tags and cut ends)
VHH: QVQLQESGGGLVQAGGSLRLSCAASGFTFSTYAMSWVRQAPGKGLEWVSSVNSGGLSTDYADSVEGRFTISRDDAKNMLFLQMNSLKPEDTARYYCAKYEDCSDYVCDRAGYWGQGTQVTVSS
notes: periplasmic extract
As to B7, in test [1], the Response worked out at 0.234 and the koff came to 0.00429 s⁻¹. In test [2], the “ELISA mIL-12RB2/control” value was determined as 1.16. Moreover, the “ELISA hIL-12RB2/control” value in test [3] was 10.9.

B8: anti-IL-12Rβ2 VHH clone 3CRHS51 (clone ID 20421) (VHH, not shown: small tags and cut ends)
VHH: QVQLQESGGGLVQPGGSLRLSCAASGFTFSTYAMSWVRQAPGKGLEWVSAVNSGGLSTDYADSVEGRFTISRDDAKNMLFLQMNRLKPEDTARYYCAKYEDCSDYVCDRAGYWGQGTQVTVSS
notes: periplasmic extract
For B8, in test [1], the Response worked out at 0.327 and the koff amounted to 0.0043 s⁻¹. Besides, the “ELISA mIL-12RB2/control” value in test [2] is 0.946. The “ELISA hIL-12RB2/control” value in test [3] was found to be 12.

B9: anti-IL-12Rβ2 VHH clone 3CAH28 (clone ID 20356) (VHH, not shown: small tags and cut ends)
VHH: QVQLQESGGGLVQSGASLRLSCAASERTLSGYAMGWFRQAPGKEREFVAAIRWSGSSTYYAESVEGRFTISRDNAKNTVYLQMNILKPEDTAVYYCAAGSDYADEYDYWGQGTQVTVSS
notes: periplasmic extract
Regarding B9, in test [1], the Response stood at 0.576 and the koff turned out to be 0.00483 s⁻¹. The “ELISA mIL-12RB2/control” value in test [2] was found to be 0.4. Besides, in test [3], the “ELISA hIL-12RB2/control” value is 7.57.

B10: anti-IL-12Rβ2 VHH clone 3CRH64 (clone ID 20386) (VHH, not shown: small tags and cut ends)
VHH: QVQLQESGGGLVQAGGSLRLSCTASGHTFSRYTTIGWFRQAPGKDREFVAAIRWSGDITDYADAVKGRFTISRDNVKNTVYLQTNSLNPEDTAVYYCARGYSEYGVLSRNRGLYAYWGQGTQVTVSS
notes: periplasmic extract
As for B10, in test [1], the Response was determined as 0.726 and the koff stood at 0.00428 s⁻¹. Besides, in test [2], the “ELISA mIL-12RB2/control” value worked out at 1.41. Further, the “ELISA hIL-12RB2/control” value in test [3] was 4.94.

B11: anti-IL-12Rβ2 VHH clone 3CRHS77 (clone ID 20425) (VHH, not shown: small tags and cut ends)
VHH: QVQLQESGGGLVQAGGSLRLSCTASGHTFSSYTTIGWFRQAPGKEREFVAAIGWSGDITDYADAVKGRFTISRHNVENTVYLQMNSLNPEDTAVYYCARGYSEYGVLSRNRGLYAYWGQGTQVTVSS
notes: periplasmic extract
In the case of B11, in test [1], the Response stood at 0.551 and the koff came to 0.00426 s⁻¹. Also, in test [2], the “ELISA mIL-12RB2/control” value was found to be 1.02. Besides, the “ELISA hIL-12RB2/control” value in test [3] stood at 6.37.

B12: anti-IL-12Rβ2 VHH clone 2CRH62 (clone ID 20368) (VHH, not shown: small tags and cut ends)
VHH: QVQLQESGGGLVQPGGSLRLSCVESGRTFTVYDMGWFRQAPGKEREIVAAISADGATSIYQDSVKGRFTISRDNDAKNTVYLQMNSLKPEDTAVYYCAAGRSLIYNLYRANNTDYWGQGTQVTVSS
notes: periplasmic extract
Consider B12, for which, in test [1], the Response stood at 0.643 and the koff stood at 0.00622 s⁻¹. Besides, the “ELISA mIL-12RB2/control” value in test [2] is 0.868. Moreover, in test [3], the “ELISA hIL-12RB2/control” value was found to be 3.51.

B13: anti-IL-12Rβ2 VHH clone 3CAHS41 (clone ID 20394) (VHH, not shown: small tags and cut ends)
VHH: QVQLQESGGGLVQAGDSLRLSCAASGRTFDTYIVGWFRQAPGKEREFVSALSWSDDTTIRDDSLRGRFTISRDNAKNTVYLLMNSLKPEDTAVYYCAAKAKPPAATWSSYRNREWYDYWGQGTQVTVSS
notes: periplasmic extract
Consider B13, for which, in test [1], the Response was determined as 0.609 and the koff amounted to 0.00441 s⁻¹. The “ELISA mIL-12RB2/control” value in test [2] came to 1.35. In addition, the “ELISA hIL-12RB2/control” value in test [3] turned out to be 8.77.

B14: anti-IL-12Rβ2 VHH clone 3CAHS180 (clone ID 20410) (VHH, not shown: small tags and cut ends)
VHH: QVQLQESGGGLVQAGDSLRLSCAASGRTFDTYIVGWFRQAPGKEREFVSALSWSDDTTIRDDSLRGRFTLSRDNAKNTVYLLMNSLKPEDTAVYYCAAKAKPPAATWSSYRNREWYDYWGQGTQVTVSS
notes: periplasmic extract
B14: in test [1], the Response worked out at 0.376 and the koff came out at 0.00265 s⁻¹. Besides, in test [2], the “ELISA mIL-12RB2/control” value was determined as 1.19. Further, the “ELISA hIL-12RB2/control” value in test [3] was 4.78.
